Target: full-length von Willebrand factor (VWF) dimer, hetero-bifunctional construct (UniProt P04275)
Assay: magnetic tweezers single-molecule force spectroscopy

Substance: full-length von Willebrand factor (VWF) dimer, hetero-bifunctional construct (from UniProt P04275 764-2813; P04275 764-2813) (natural protein)
- mean dwell time between stem transitions (fits to individual datasets): 0.28 s
- mean dwell time between stem transitions (global fit): 0.28 s
- midpoint force F1/2 of stem opening: 1 pN
